Test: label from the status in PepcDB records
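Further: failed if final PepcDB status was selected cloned or expressed and not failed if soluble or beyond.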

| Sequence | protein production |
| --- | --- |
| MTTPPLRIGLIGAGYIAAWHADALRAVPGVKLTAVCDPNMDLAEGLAAAHGARAFGDLDDLIGAGLCDGVHILTPPDLHHPLALHCLRAGLHVLVEKPVALNAAQTQEIEDAARAANRRFHAGHNFLGLPSYTRLKREIRRGALGRVSGAEIRWCYPFGPLRAGPFGIWPLRDTRNLMLEFGPHLMSLVIDLFGLPEIEHVALSKPVALPGAGTRPQGWRILARAGEVELVLILSLVETADDRSVTIRGSSARARLDLAADTLVIDAENTADLVANPLLRQLSLARQHLVQGSVNAARQLTSFNRKSPYALSFRGLANGIWEPLAQNAPADPRWSGSSAVAVMTALDAVLERVDWPAPVPASPSRKPAPSAMVIGGTGFIGRALTRELVARGSDVRVISRGRQGSFADLPDQVETVSLSLRDTEGLARAMAGIDTVYNLARSTDSSWEDCLQNDVAVAEGIGKAALAAGVRRLVYTGTIASFDMSDPAATITDATPLPDEMDERNLYARSKAECERRLMALHRQSALPLVIARPGIVLGAGGPLQHWGIGRWHGAGAVRLWGNGRNPLPFVLIGDCVDGLIRCAEAEGIEGRAFNLVGPPILSARDYFDAIHDRLGARIRVSGGNLSLMYAADWVKFQLKTRVLGRSGLTRPSRADWLSRAHQSRFDISGARSALGWHPVSDADAFLTNAVDEAGLLGF | failed |
| MTTPRPEYPRPHFDRSHSWLTLNGTWDFRADPAEAYSADASDGYDRAITVPFAWETPASGIAEHWLRTAWYRRTFTVPADWAGQRVVLHFGAVHHAATVWVNGTEVAHHEGGYTPFAADVTDALGDGEHQLTVRVHAPADKRDIAHGKQRSMPRDDYDGVCFTPSSGIWQSVWLEARPATHLAALRLRPNDDLTGITVEAVVHGPAADRAELRLRVRDEDTAVTATLDPDGRLATELPLSAPRLWSPEDPHLYHVDAELTSADGTDRVAAYTGLRTVTVDGESLYLNGRRLFVRGVLDQGYWPETGITAPDDAALRRDIELAAEAGYNLVRKHLKLEDPRFAHHADTLGMLLWAEPASPGRFSPASTAAFAEQIEPMVERDGNSPAIVIWGLYNEEWGLDWDIPGDPAKQRATADAYDRLKALDPTRPVVDNSGWTHVKTDLLDWHYYDESAASWATTVADLLSGERDDFPVKLGPDFVVRKKLAVPGQPLRGLPNLNSEYGGGFTGLDRAWHLRWQTQELRRHDRLAGYVYTELYDIEHESAGLLDFGRGAKDLAGVDPAHANAPTTLVLDVTPVAPGRDLLTTGPDFTVDVHVSHHGDDPVAGTVHTTWTPVYARTPDAPGDAVPGCRAEAKPYVLGAAVTVPAALPDGWTSGRLHLALVVDGTVAARTALDVDTRTDPYIGDDPQARPTA | failed |
| MTTPRRALIVIDVQNEYVTGDLPIEYPDVQSSLANIARAMDAARAAGVPVVIVQNFAPAGSPLFARGSNGAELHPVVSERARDHYVEKSLPSAFTGTDLAGWLAARQIDTLTVTGYMTHNCDASTINHAVHSGLAVEFLHDATGSVPYENSAGFASAEEIHRVFSVVLQSRFAAVASTDEWIAAVQGGTPLARGNIYASNQKARARRATA | not failed |
| MTTPSHLSDRYELGEILGFGGMSEVHLARDLRLHRDVAVKVLRADLARDPSFYLRFRREAQNAAALNHPAIVAVYDTGEAETPAGPLPYIVMEYVDGVTLRDIVHTEGPMTPKRAIEVIADACQALNFSHQNGIIHRDVKPANIMISATNAVKVMDFGIARAIADSGNSVTQTAAVIGTAQYLSPEQARGDSVDARSDVYSLGCVLYEVLTGEPPFTGDSPVSVAYQHVREDPIPPSARHEGLSADLDAVVLKALAKNPENRYQTAAEMRADLVRVHNGEPPEAPKVLTDAERTSLLSSAAGNLSGPRTDPLPRQDLDDTDRDRSIGSVGRWVAVVAVLAVLTVVVTIAINTFGGITRDVQVPDVRGQSSADAIATLQNRGFKIRTLQKPDSTIPPDHVIGTDPAANTSVSAGDEITVNVSTGPEQREIPDVSTLTYAEAVKKLTAAGFGRFKQANSPSTPELVGKVIGTNPPANQTSAITNVVIIIVGSGPATKDIPDVAGQTVDVAQKNLNVYGFTKFSQASVDSPRPAGEVTGTNPPAGTTVPVDSVIELQVSKGNQFVMPDLSGMFWVDAEPRLRALGWTGMLDKGADVDAGGSQHNRVVYQNPPAGTGVNRDGIITLRFGQ | failed |
| MTTSGERRVAGLAMIGSAACWGSATVMSRDLLVSMTSIQLLLVQLMASVCVLLALAAPRFPWTYRSREMTKGALCGVLEPGLAYVVGLAGLAQTTAGRASIISASEPVLIVLVAWVLFNQRPGLRLMAAIAIAVGGLVLVSWSPVVEDRGGAFRGDMMVVLATLFAAGYVVISSRIVGSFPAASLASGQQMVGLAFAMLVYAGAMAHGDDMGGFGAIPGGTLAYAALSGVVQYALAFWLYLIGLRYLSAGAAGLWLTLIPVFGLAGAWLWLGERPGLLTVLGAIVIVSAVVLGNRGGTE | failed |
| MTTSIQRRISIVIPCLNDAVLLEQCLSSIVAQTLQPEEVIVVDNGSTDNSVEVANRMGARVVHEPLQGITWASAAGYNSARGDLIVRFDADCVIPPDHLSQVNAIWNRTEETPGRTIVALTGTGSFDIPGRMGEWLALCYLGAYRWSTKQALGHYPIFGSNSVISRQWWEDVKDQITLSETFVHEDMYFSFFVRPHETVWFEKNLKLIMHPRALMGVRQSFIRLVRGFYTIKIAWKREPVHQRLESRRDWTLEHHHHHH | failed |
| MTTTASQEAFLQAFHAEYPAVTAEAFGRGHAPDGRSSYEILCDRVAGSMRVLDLGCGDGLLLEFLARRSGRQLAGVDLSPHSLALARRRPALSEAKLEEGRAQELPFADDSFDACVSHMALMLMSEIEQVASEVARVLSPGGVLACVVGGGAVGGEAYERFLALLRCTIEETPASQRIPALGDKRTRSREGLDEVLGPAGFTAVDWETVPIDLSAPGEQVWAAVSSLYDLGPLDRATLDRLREAFFAEVRDMTTSEGHVPCAFKIHLATARLR | failed |
| MTTTIEVGMLGLGTVGSGVVERLTRSAAKIEQTQGIRLHLAAVAVNHLNAPRTVQLPIGTRLTDSLTNVVCDRKIQLVIEVMGTVATAKKAIVAALNQGKAVVTANKDLIATAGPELAALAKKQGCDLFYEASVAGGIPILRTLTDSYVTDNVQAVSGIINGTANYMLSAMATGQSYEQALATAQATGYAEADPTNDVAGIDAAYKLMILSRFAFGQELSLPQIAPTGITHLSASVCRLAAENGWQIKLLAQIQRHGSGLYCRVAPVAVPVDQPLSQINGVQNAVAVQSEAIGTSLYTGPGAGSTATANSVLNDVLVAAKHLINGYRMIRNQKRSVSLTVTRFDQLPQTYLGIGPVAPEAVKYYANEADFSVKTIADDCYQITGLSAVKRKKLRANLPLTLIPIAGTTDWKQVTENSITSPINVAILEHHHHHH | not failed |
| MTVANWQVRDLTLILRTGEMQSRLEQARTDFGALLPETVYFQPSAIRLGEFDDEYILTRQELVYVYLREDIARQCALRRHLPSNSSNSGIMATAIPPWLMDARRLNRVMQERCDQGGLVHYYQGPHTNQFFLAIMPSNCFVRFGTDVINNENYGFYARGGNYTEEGEDDDDEMDDEDETGGAETRDSQTGNLINYPIIALGSCHLSALEHHHHHH | not failed |
| MTVDPASHITIPEADLARLRHCNHHDPHGFYGWHETEAGSVIRTRQVGATQVNLLIDDTSHVMTPIGDDIFAIDLGHRERADYRLEVTWPDQEPQVKADPYYFLPTVG | not failed |
| MTVGQVLRSYPQTVQTFLELGMHCLGCPSSTMESIEGAALTHGKKPDELVEKLNKVIAANLEHHHHHH | failed |
| MTWTNVLAMLVWTGASAVLLFAIMWVDSIFTKYNDLKEIKNGNTAVTTRFVMKLFAQGYILSQSITKANDLWQALLASAVSFVILLVVEMFIEFVLKKMAGLDLEEGTKEGSVAHAMLAGSLHIVGALILGACL | failed |
| MTYEAFVELVERLWEEVPEDFKRGLQGVHVFPEAKPEPGLEGVWRLGEYLDPGPPSAFGGFEDLGRHIALYYGSFLEVAGEGFDWEAEVWETLLHELRHHLESLAGRDDLVQEDLRRLDAFRRGGPSGEG | not failed |
| MTYELSTDREFDLIAIGRACIDLNAVEYNRPMEETMTFSKYVGGSPANIVIGSSKLGLKAGFIGKIADDQHGRFIESYMRGVGVDTSNLVVDQEGHKTGLAFTEIKSPEECSILMYRQDVADLYLSPEEVNEAYIRRSKLLLVSGTALSKSPSREAVLKAIRLAKRNDVKVVFELDYRPYSWETPEETAVYYSLVAEQSDIVIGTREEFDVLENRTEKGDNDETIRYLFKHSPELIVIKHGVEGSFAYTKAGEAYRGYAYKTKVLKTFGAGDSYASAFLYALISGKGIETALKYGSASASIVVSKHSSSDAMPSVEEIEALIEKDETITIA | not failed |
| MTYLETAAQFYSEVAQTPQVGLCCVQSTPLQLPGLKIPLPMQEMNYGCGTTVHPTELGKQPTVLYVGVGGGLEALQFAYFSRRPGAVIAVEPVAAMREAAARNLEMALTDNPWFDSSFVEIREGDAFNLPVADGSVDIVAQNCLFNIFEPEDLTRALKEAYRVLKPGGRLQMSDPIATSPVPAHLQQDERLRAMCLSGALTYEEYTQRIIDAGFGQIEIRARRPYRLLDSQTYNLETHLLLESLDSVSFKVPMPEDGACIFTGRTAIYAGCDAFFDDKAGHILQRGIPATVCDKTAAKLATVKPKEVIITDSTWHYNGGGCCLEHHHHHH | not failed |
| MVADESITVTVEVKNTGVVAGAEVVQLYLHDKKASVSRPIKELKGFAKVYLAPGESKRVSISLNKRDLSFWDVHTNDWLAEVGEFEVLLGTSLDNIRQKATFTYQNKYEQLEHHHHHH | failed |
| MVAHSLVPLSPAAHAARLSSPSPRSLPQAPPVVLAVPPINRRTILVGLGGALWSWNALAAKEEAMAAARRPPPPPPKEKKDPTVTGVQAKVLASKKRKEEMKASIAKLREKGKPVVEAKPSSSSSE | failed |
| MVASAPASAGTKGVIRQVIGPVLDVEFPAGKLPKIYNALRVETKNTAGQDVALTAEVQQLLGDHRVRAVAMSGTDGLVRGMEIADTGAPISVPVGEATLGRIFNVLGEPVDEQGPVNASATAPIHRDAPNLTELETKPKVFETGIKVIDLLAPYRQGGKVGLFGGAGVGKTVLIQELINNIAKEHGGVSVFGGVGERTREGNDLYEEFKESGVINADDLSKSKVALCYGQMNEPPGARMRVGLSALTMAEHFRDVNKQDVLLFVDNIFRFVQAGSEVSALLGRMPSAVGYQPTLGTDVGALQERVASTVEGSITSIQAVYVPADDLTDPAPATTFAHLDATTVLNRALASKGIYPAVDPLDSTSTMLQPAVVGDEHYRTARLVQSTLQRYKELQDIIAILGLDELSEDDRQTVDRARKVEKFLSQPFFVAEIFTGMPGKYVKLEETIAGFNQILAGELDHLPEAAFYLVGSIEEAKAKAEKIAAETK | failed |
| MVCVDFIDQKVYSEAEGLFVSDLDLGIKGLIRARYPFALDSDFISYGNLSHYCMNYLDEIVQRANQKNEKIKYNVTTLMKEEEKPFNVEERLNKQATIGQRIADDVARFGGSWTFIIVFVSIMAIWMLVNIMKPFGIQFDPYPFILLNLALSTIAAIQAPLIMMSQNRAADYDRLQARNDFNVNKTSELEIRLLHEKIDHMVQQDQFELLEIQKLQTEMLVSLGNQLAQLKQLQK | failed |
| MVDDRFNHFRIINRVLEKGMPVLTPVSVAIGVWMAERFSNFASAVPWLFAVISFVGALGLTLVDIRERLRRPQAMIVTLFILQILMPLIALLVGMWLFDPMTRSGLVLAFSIPTGVMSLMWVTIYHGNKSFALAVVFIHTLLSPFFIPWTLRWFIGTDIPFDVGGMVWGLLWMIVIPSLLAISATRYTPKVVPMMKDVLSPIAKLHLFLIIMINSSVAAPFIRSWDLSLLYIILTVLAIALSGYGLGYVGARLLKLDESMRISMVYTCGMRNIGAGAALAVAYFPPPVMVPIVAAILFQQVLAAALGKWMRTGRTDQSLIERGTT | failed |

From a protein production outcome set (Wang et al. 2014)
